The target in experiment [1] is T1, human FcγRIIb extracellular domain with C-terminal His tag (human, UniProt P31994 43-217).
T1 construct: extracellular domain; not shown: His tag at the C terminus
T1 sequence (looked up): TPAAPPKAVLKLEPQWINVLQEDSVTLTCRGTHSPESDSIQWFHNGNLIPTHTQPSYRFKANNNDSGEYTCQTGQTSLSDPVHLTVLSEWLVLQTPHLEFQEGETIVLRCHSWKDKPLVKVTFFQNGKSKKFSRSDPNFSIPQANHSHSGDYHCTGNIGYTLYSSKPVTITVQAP
Nature of the experiment: SPR (Biacore); KD for FcγRIIaR divided by KD for FcγRIIb.

In experiment [2] the target is T2, human FcγRIa extracellular domain with C-terminal His tag (human, UniProt P12314 16-292).
T2 construct: not shown: His tag at the C terminus
T2 sequence (P12314 16-292): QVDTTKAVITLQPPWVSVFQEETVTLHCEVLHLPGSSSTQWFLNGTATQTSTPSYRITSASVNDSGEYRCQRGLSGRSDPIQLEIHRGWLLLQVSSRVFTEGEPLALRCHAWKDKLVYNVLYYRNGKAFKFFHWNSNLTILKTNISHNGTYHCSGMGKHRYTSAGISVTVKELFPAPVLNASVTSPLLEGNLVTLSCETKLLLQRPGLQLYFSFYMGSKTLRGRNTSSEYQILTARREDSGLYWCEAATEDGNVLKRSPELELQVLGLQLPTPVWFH
Put plainly: SPR (Biacore), antibody captured, FcγR analyte. On the technique in general: Surface plasmon resonance follows binding to a sensor surface in real time, without labels.

Experiment [3] concerns the target T1, human FcγRIIb extracellular domain with …. Put plainly: SPR (Biacore), antibody captured, FcγR analyte.
The target of experiment [4] is T3, human FcγRIIa type R (R131) extracellular domain with C-terminal His tag (human, UniProt P12318 34-217).
T3 construct: extracellular domain; also called FcγRIIaR; not shown: His tag at the C terminus
T3 sequence (looked up): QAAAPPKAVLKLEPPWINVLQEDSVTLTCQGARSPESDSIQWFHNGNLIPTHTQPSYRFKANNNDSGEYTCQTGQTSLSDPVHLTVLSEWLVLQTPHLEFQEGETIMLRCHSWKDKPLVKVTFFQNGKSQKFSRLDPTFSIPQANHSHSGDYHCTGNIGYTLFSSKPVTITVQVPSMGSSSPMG
Nature of the experiment: SPR (Biacore), antibody captured, FcγR analyte.

Experiment [5] deals with T1, human FcγRIIb extracellular domain with …. Put plainly: SPR (Biacore); KD of IL6R-B3/IL6R-L divided by KD of this antibody.
Experiment [6] deals with T3, human FcγRIIa type R (R131) …. The experiment is described as above.
Experiment [7] addresses T4, human FcγRIIa type R extracellular domain with C-terminal His tag (human, UniProt P12318 34-217).
T4 construct: extracellular domain; also called FcγRIIaR; FcγRIIa R
T4 sequence (looked up): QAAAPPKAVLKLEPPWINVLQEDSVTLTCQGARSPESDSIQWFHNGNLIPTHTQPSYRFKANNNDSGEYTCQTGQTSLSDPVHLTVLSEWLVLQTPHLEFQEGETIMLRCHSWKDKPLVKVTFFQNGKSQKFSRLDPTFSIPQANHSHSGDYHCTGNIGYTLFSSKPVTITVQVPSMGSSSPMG
Nature of the experiment: SPR, Ref. Ex. 25.

Experiment [8] concerns the target T5, human FcγRIIIa type V extracellular domain with C-terminal His tag (human, UniProt P08637 17-208).
T5 construct: extracellular domain; also called FcγRIIIaV; FcγRIIIa V type
Nature of the experiment: SPR, Ref. Ex. 25.

Experiment [9] deals with T6, human FcγRIIa type H extracellular domain with C-terminal His tag (human, UniProt P12318 34-217).
T6 construct: extracellular domain; also called FcγRIIaH; FcγRIIa H
T6 sequence (looked up): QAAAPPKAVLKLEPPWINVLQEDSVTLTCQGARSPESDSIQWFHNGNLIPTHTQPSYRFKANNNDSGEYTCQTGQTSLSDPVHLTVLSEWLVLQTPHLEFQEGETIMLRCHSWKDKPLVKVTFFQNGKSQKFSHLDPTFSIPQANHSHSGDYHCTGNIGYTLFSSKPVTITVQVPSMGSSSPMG
Put plainly: SPR, Ref. Ex. 25.

Experiment [10] has as its target T3, human FcγRIIa type R (R131) …. Put plainly: SPR (Biacore), antibody captured, FcγR analyte. The source holds these as a separate data set.
The target of experiment [11] is T7, human FcγRIIIa type V (V158) extracellular domain with C-terminal His tag (human, UniProt P08637 17-208).
T7 construct: extracellular domain; also called FcγRIIIaV; not shown: His tag at the C terminus
T7 sequence (P08637 17-208 F176V): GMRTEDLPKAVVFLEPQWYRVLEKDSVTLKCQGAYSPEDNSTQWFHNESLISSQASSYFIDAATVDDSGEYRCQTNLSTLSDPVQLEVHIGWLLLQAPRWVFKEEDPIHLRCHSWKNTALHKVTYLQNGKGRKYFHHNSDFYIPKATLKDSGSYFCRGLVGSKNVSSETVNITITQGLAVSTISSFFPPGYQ
Nature of the experiment: SPR (Biacore), antibody captured, FcγR analyte.

Experiment [12] concerns the target T2, human FcγRIa extracellular domain with …. Nature of the experiment: SPR (Biacore), antibody captured, FcγR analyte. The source holds these as a separate data set.
Experiment [13] has the same target. Put plainly: SPR (Biacore), antibody captured, FcγR analyte. The source holds these as a separate data set.
The target of experiment [14] is T8, human FcγRIIa type H (H131) extracellular domain with C-terminal His tag (human, UniProt P12318 34-217).
T8 construct: extracellular domain; also called FcγRIIaH; not shown: His tag at the C terminus
T8 sequence (looked up): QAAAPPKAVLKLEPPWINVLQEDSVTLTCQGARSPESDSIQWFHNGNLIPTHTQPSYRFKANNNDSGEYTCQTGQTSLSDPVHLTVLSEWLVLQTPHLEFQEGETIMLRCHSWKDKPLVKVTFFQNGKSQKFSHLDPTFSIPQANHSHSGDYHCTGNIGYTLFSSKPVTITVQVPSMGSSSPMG
Nature of the experiment: SPR (Biacore), antibody captured, FcγR analyte.

Experiment [15] addresses T1, human FcγRIIb extracellular domain with …. Nature of the experiment: SPR (Biacore), antibody captured, FcγR analyte. This is another data set of the same source.

The values below come from patent publication US20220389118A1 (Chugai, published 2022).

Read-outs that look alike come from different tables or passages of the source.

T5 sequence (P08637 17-208 F176V): as the sequence (P08637 17-208 F176V) above

B1: IL6R-BP478/IL6R-L (antibody)
heavy: QVQLQESGPGLVKPSETLSLTCAVSGHSISHDHAWSWVRQPPGEGLEWIGFISYSGITNYNPSLQGRVTISRDNSKNTLYLQMNSLRAEDTAVYYCARSLARTTAMDYWGEGTLVTVSSASTKGPSVFPLAPCSRSTSESTAALGCLVKDYFPEPVTVSWNSGALTSGVHTFPAVLQSSGLYSLSSVVTVPSSSLGTKTYTCNVDHKPSNTKVDKRVESKYGPPCPPCPAPDLLGDDSVFLFPPKPKDTLMISRTPEVTCVVVDVSDEDGEVKFNWYVDGVEVHNAKTKPREEQDNSTYRVVSVLTVLHQDWLNGKEYKCKVSNKALPRPIEKTISKAKGQPREPQVYTLPPSRDELTKNQVSLTCLVKGFYPSDIAVEWESNGQPENNYKTTPPVLDSDGSFFLYSKLTVDKSRWQQGNVFSCSVMHEALHNHYTQESLSLSP
light: not shown
notes: copies: 2 + 2
Turning to B1, the “KD(IIaR)/KD(IIb)” value in experiment [1] was 28. Moreover, the Kd in experiment [2] is 7.7 nM; in [3], 19 nM; in [4] it was 540 nM. Further, the “KD(IIb) of parent polypeptide/KD(IIb) of altered polypeptide” value in [5] is 161. In experiment [6], the “KD(IIaR) of parent polypeptide/KD(IIaR) of altered polypeptide” value came out at 2.

B2: IL6R-PD087/IL6R-L (antibody, human IgG1, kappa)
heavy: QVQLQESGPGLVKPSETLSLTCAVSGHSISHDHAWSWVRQPPGEGLEWIGFISYSGITNYNPSLQGRVTISRDNSKNTLYLQMNSLRAEDTAVYYCARSLARTTAMDYWGEGTLVTVSSASTKGPSVFPLAPSSKSTSGGTAALGCLVKDYFPEPVTVSWNSGALTSGVHTFPAVLQSSGLYSLSSVVTVPSSSLGTQTYICNVNHKPSNTKVDKKVEPKSCDKTHTCPPCPAPELLGMDSVFLFPPKPKDTLYISRTPEVTCVVVDVSHEDPEVKFNWYVDGVEVHNAKTKPREEQYNSTYRVVSVLTVLHQDWLNGKEYKCKVSNKALPAPIEKTISKAKGQPREPQVYTLPPSRDELTKNQVSLTCLVKGFYPSDIAVEWESNGQPENNYKTTPPVLDSDGSFFLYSKLTVDKSRWQQGNVFSCSVMHEALHYHYTQKSLSLSP
light: not shown
notes: also called P238D/G237M; G237M/P238D; copies: 2 + 2
For the molecule B2, the Kd came to 22000 nM in experiment [7], 37000 nM in experiment [8] and 20000 nM in [9].

B3: IL6R-BP469/IL6R-L (antibody, human IgG1, kappa)
heavy: QVQLQESGPGLVKPSETLSLTCAVSGHSISHDHAWSWVRQPPGEGLEWIGFISYSGITNYNPSLQGRVTISRDNSKNTLYLQMNSLRAEDTAVYYCARSLARTTAMDYWGEGTLVTVSSASTKGPSVFPLAPSSKSTSGGTAALGCLVKDYFPEPVTVSWNSGALTSGVHTFPAVLQSSGLYSLSSVVTVPSSSLGTQTYICNVNHKPSNTKVDKKVEPKSCDKTHTCPPCPAPDLLGDDSVFLFPPKPKDTLMISRTPEVTCVVVDVSDEDGEVKFNWYVDGVEVHNAKTKPREEQDNSTYRVVSVLTVLHQDWLNGKEYKCKVSNKALPRPISKTISKAKGQPREPQVYTLPPSRDELTKNQVSLTCLVKGFYPSDIAVEWESNGQPENNYKTTPPVLDSDGSFFLYSKLTVDKSRWQQGNVFSCSVMHEALHNHYTQESLSLSP
light: not shown
notes: E333S introduced into IL6R-BP230; copies: 2 + 2
As for B3, the Kd in experiment [10] came to 600 nM.

B4: IL6R-BP462/IL6R-L (antibody, human IgG1, kappa)
heavy: QVQLQESGPGLVKPSETLSLTCAVSGHSISHDHAWSWVRQPPGEGLEWIGFISYSGITNYNPSLQGRVTISRDNSKNTLYLQMNSLRAEDTAVYYCARSLARTTAMDYWGEGTLVTVSSASTKGPSVFPLAPSSKSTSGGTAALGCLVKDYFPEPVTVSWNSGALTSGVHTFPAVLQSSGLYSLSSVVTVPSSSLGTQTYICNVNHKPSNTKVDKKVEPKSCDKTHTCPPCPAPDLLGDDSVFLFPPKPKDTLMISRTPEVTCVVVDVAEEDGEVKFNWYVDGVEVHNAKTKPREEQYNSTYRVVSVLTVLHQDWLNGKEYKCKVSNKALPRPIEKTISKAKGQPREPQVYTLPPSRDELTKNQVSLTCLVKGFYPSDIAVEWESNGQPENNYKTTPVVLDSDGSFFLYSKLTVDKSRWQQGNVFSCSVMHEALHNHYTQESLSLSP
light: not shown
notes: P396V introduced into IL6R-BP423; copies: 2 + 2
Take B4: the Kd in [11] stood at 9000 nM.

B5: IL6R-BP267/IL6R-L (antibody, human IgG1, kappa)
heavy: QVQLQESGPGLVKPSETLSLTCAVSGHSISHDHAWSWVRQPPGEGLEWIGFISYSGITNYNPSLQGRVTISRDNSKNTLYLQMNSLRAEDTAVYYCARSLARTTAMDYWGEGTLVTVSSASTKGPSVFPLAPSSKSTSGGTAALGCLVKDYFPEPVTVSWNSGALTSGVHTFPAVLQSSGLYSLSSVVTVPSSSLGTQTYICNVNHKPSNTKVDKKVEPKSCDKTHTCPPCPAPDLLGDDSVFLFPPKPKDTLMISRTPEVTCVVVDVSEEDGEVKFNWYVDGVEVHNAKTKPREEQYNSTYRVVSVLTVLHQDWLNGKEYKCKVSNKALPAPIEKTISKAKGQPREPQVYTLPPSRDELTKNQVSLTCLVKGFYPSDIAVEWESNGQPENNYKTTPPVLDSDGSFFLYSKLTVDKSRWQQGNVFSCSVMHEALHNHYTQESLSLSP
light: not shown
notes: alterations counted against IL6R-B3; copies: 2 + 2
In the case of B5, in experiment [12], the Kd was determined as 4 nM.

B6: IL6R-BP384/IL6R-L (antibody, human IgG1, kappa)
heavy: QVQLQESGPGLVKPSETLSLTCAVSGHSISHDHAWSWVRQPPGEGLEWIGFISYSGITNYNPSLQGRVTISRDNSKNTLYLQMNSLRAEDTAVYYCARSLARTTAMDYWGEGTLVTVSSASTKGPSVFPLAPSSKSTSGGTAALGCLVKDYFPEPVTVSWNSGALTSGVHTFPAVLQSSGLYSLSSVVTVPSSSLGTQTYICNVNHKPSNTKVDKKVEPKSCDKTHTCPPCPAPDLLGDDSVFLFPPKPKDTLMISRTPEVTCVVVDVSDEDGEVKFNWYVDGVEVHNAKTKPREEQDNSTYRVVSVLTVLHQDWLNGKEYKCKVSNKALPRPIERTISKAKGQPREPQVYTLPPSRDELTKNQVSLTCLVKGFYPSDIAVEWESNGQPENNYKTTPPVLDSDGSFFLYSKLTVDKSRWQQGNVFSCSVMHEALHNHYTQESLSLSP
light: not shown
notes: K334R introduced into IL6R-BP230; copies: 2 + 2
On to B6, for which the affinity in experiment [13], expressed as Kd, was 3 nM.

B7: IL6R-BP470/IL6R-L (antibody, human IgG1, kappa)
heavy: QVQLQESGPGLVKPSETLSLTCAVSGHSISHDHAWSWVRQPPGEGLEWIGFISYSGITNYNPSLQGRVTISRDNSKNTLYLQMNSLRAEDTAVYYCARSLARTTAMDYWGEGTLVTVSSASTKGPSVFPLAPSSKSTSGGTAALGCLVKDYFPEPVTVSWNSGALTSGVHTFPAVLQSSGLYSLSSVVTVPSSSLGTQTYICNVNHKPSNTKVDKKVEPKSCDKTHTCPPCPAPDLLGDDSVFLFPPKPKDTLMISRTPEVTCVVVDVSDEDGEVKFNWYVDGVEVHNAKTKPREEQDNSTYRVVSVLTVLHQDWLNGKEYKCKVSNKALPRPITKTISKAKGQPREPQVYTLPPSRDELTKNQVSLTCLVKGFYPSDIAVEWESNGQPENNYKTTPPVLDSDGSFFLYSKLTVDKSRWQQGNVFSCSVMHEALHNHYTQESLSLSP
light: not shown
notes: E333T introduced into IL6R-BP230; copies: 2 + 2
With B7, in experiment [14], the Kd stood at 10000 nM.

B8: IL6R-BP468/IL6R-L (antibody, human IgG1, kappa)
heavy: QVQLQESGPGLVKPSETLSLTCAVSGHSISHDHAWSWVRQPPGEGLEWIGFISYSGITNYNPSLQGRVTISRDNSKNTLYLQMNSLRAEDTAVYYCARSLARTTAMDYWGEGTLVTVSSASTKGPSVFPLAPSSKSTSGGTAALGCLVKDYFPEPVTVSWNSGALTSGVHTFPAVLQSSGLYSLSSVVTVPSSSLGTQTYICNVNHKPSNTKVDKKVEPKSCDKTHTCPPCPAPDLLGDDSVFLFPPKPKDTLMISRTPEVTCVVVDVSDEDGEVKFNWYVDGVEVHNAKTKPREEQDNSTYRVVSVLTVLHQDWLNGKEYKCKVSNKALPRPIETTISKAKGQPREPQVYTLPPSRDELTKNQVSLTCLVKGFYPSDIAVEWESNGQPENNYKTTPPVLDSDGSFFLYSKLTVDKSRWQQGNVFSCSVMHEALHNHYTQESLSLSP
light: not shown
notes: copies: 2 + 2
In turn, B8 registered a Kd in [15] of 40 nM.

As usually defined, the Kd is the equilibrium constant for the complex coming apart. High values mean weaker binding, low ones tighter binding.
